This test concerns the target recombinant Ebola virus (EBOV) glycoprotein (Zaire ebolavirus (EBOV)) (UniProt Q05320). Nature of the test: SEC. For orientation: SEC sorts molecules by how far they enter the pores of the column.

Results on one substance are retold here after paper PMC6825541.

In the case of “recombinant Ebola virus (EBOV) glycoprotein (from UniProt Q05320) (natural protein)”, the stoichiometry N (as a rule, a count of units in the complex or per binding partner) was found to be 3.
